Tests used:
[1] = molecular target: T1, human suPAR (hsuPAR) recombinant protein (human), Q03405; assay: BLI, with WAb0014 against without; details: remark: other sources report otherwise
[2] = molecular target: T1, human suPAR (hsuPAR) recombinant …; assay: BLI (Octet Red96E), hsuPAR 2 µg/mL on streptavidin sensor, vitronectin as analyte
[3] = molecular target: T1, human suPAR (hsuPAR) recombinant …; assay: BLI (Octet Red96E), WAb0014 on AHC sensor, hsuPAR captured, vitronectin as analyte (in the presence of WAb0014)

T1 sequence (Q03405 23-303): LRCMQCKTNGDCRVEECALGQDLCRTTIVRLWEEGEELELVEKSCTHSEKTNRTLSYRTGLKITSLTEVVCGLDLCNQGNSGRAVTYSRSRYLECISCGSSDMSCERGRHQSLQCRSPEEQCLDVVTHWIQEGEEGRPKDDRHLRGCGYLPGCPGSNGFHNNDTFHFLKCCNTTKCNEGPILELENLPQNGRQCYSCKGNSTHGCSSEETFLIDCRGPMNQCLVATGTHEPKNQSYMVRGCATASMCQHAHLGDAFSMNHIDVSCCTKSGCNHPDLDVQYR

fold reduction in affinity in the presence of WAb0014 [1]: 5 fold
Kd [2]: 0.0135 µM
Kd [3]: 0.0622 µM
B1: vitronectin, P04004 20-478 (ligand)
chain: DQESCKGRCTEGFNVDKKCQCDELCSYYQSCCTDYTAECKPQVTRGDVFTMPEDEYTVYDDGEEKNNATVHEQVGGPSLTSDLQAQSKGNPEQTPVLKPEEEAPAPEVGASKPEGIDSRPETLHPGRPQPPAEEELCSGKPFDAFTDLKNGSLFAFRGQYCYELDEKAVRPGYPKLIRDVWGIEGPIDAAFTRINCQGKTYLFKGSQYWRFEDGVLDPDYPRNISDGFDGIPDNVDAALALPAHSYSGRERVYFFKGKQYWEYQFQHQPSQEECEGSSLSAVFEHFAMMQRDSWEDIFELLFWGRTSAGTRQPQFISRDWHGVPGQVDAAMAGRIYISGMAPRPSLAKKQRFRHRNRKGYRSQRGHSRGRNQNSRRPSRATWLSLFSSEESNLGANNYDDYRMDWLVPATCEPIQSVFFFSGDKYYRVNLRTRRVDTVDPPYPRSIAQYWLGCPAPGHL
